Test results published in paper PMC8367383, “A CTP-dependent gating mechanism enables ParB spreading on DNA” (eLife, 2021).

B1: C. crescentus ParB on a cysteine-less ParB background [C. crescentus] / itself (parent)
chain: MESVVVGEPGMSEGRRGLGRGLSALLGEVDAAPACAPGEQLGGSREAPIEILQRNPDQPRRTFREEDLEDLSNSIREKGVLQPILVRPSPDTAGEYQIVAGERRWRAAQRAGLKTVPIMVRELDDLAVLEIGIIENVQRADLNVLEEALSYKVLMEKFERTQENIAQTIGKSRSHVANTMRLLALPDEVQSYLVSGELTAGHARAIAAAADPVALAKQIIEGGLSVRETEALARKAPNLSAGKSKGGRPPRVKDTDTQALESDLSSVLGLDVSIDHRGSTGTLTITYATLEQLDDLSNRLTRGI

Variants of: B1
Assay: BMOE crosslinking assay
Settings: with itself, 8 µM ParB variant, 0.5 µM 22 bp parS DNA, 5 min preincubation, read off a plot
[1] = 1 µM CTP point (lowest), parent: 33
[2] = 1000 µM CTP point (highest), parent: 80

response [1] [%] | response [2] [%] | Variant
31 | 80 | MESVVVGEPGMSEGRRGLGRGLSALLGEVDAAPACAPGEQLGGSREAPIEILQRNPDQPRRTFREEDLEDLSNSIREKGVLQPILVRPSPDTAGEYQIVAGARRWRAAQRAGLKTVPIMVRELDDLAVLEIGIIENVQRADLNVLEEALSYKVLMEKFERTQENIAQTIGKSRSHVANTMRLLALPDEVQSYLVSGELTAGHARAIAAAADPVALAKQIIEGGLSVRETEALARKAPNLSAGKSKGGRPPRVKDTDTQALESDLSSVLGLDVSIDHRGSTGTLTITYATLEQLDDLSNRLTRGI [chain 1 E102A]
27 | 62 | MESVVVGEPGMSEGRRGLGRGLSALLGEVDAAPACAPGEQLGGSREAPIEILQRNPDQPRRTFREEDLEDLSNSIREKSVLQPILVRPSPDTAGEYQIVAGERRWRAAQRAGLKTVPIMVRELDDLAVLEIGIIENVQRADLNVLEEALSYKVLMEKFERTQENIAQTIGKSRSHVANTMRLLALPDEVQSYLVSGELTAGHARAIAAAADPVALAKQIIEGGLSVRETEALARKAPNLSAGKSKGGRPPRVKDTDTQALESDLSSVLGLDVSIDHRGSTGTLTITYATLEQLDDLSNRLTRGI [chain 1 G79S]
52 | 64 | MESVVVGEPGMSEGRRGLGRGLSALLGEVDAAPACAPGEQLGGSREAPIEILQRNPDQPRRTFREEDLEDLSNSIREKGVLQPILVRPSPDTAGEYQIVAGERRWRAAQRAGLKTVPIMVRELDDLAVLEIGIIEAVQRADLNVLEEALSYKVLMEKFERTQENIAQTIGKSRSHVANTMRLLALPDEVQSYLVSGELTAGHARAIAAAADPVALAKQIIEGGLSVRETEALARKAPNLSAGKSKGGRPPRVKDTDTQALESDLSSVLGLDVSIDHRGSTGTLTITYATLEQLDDLSNRLTRGI [chain 1 N136A]

Further lines, the variant ahead of its results:

Variant | response [1] [%] | response [2] [%]
MESVVVGEPGMSEGRRGLGRGLSALLGEVDAAPACAPGEQLGGSREAPIEILQRNPDAPRRTFREEDLEDLSNSIREKGVLQPILVRPSPDTAGEYQIVAGERRWRAAQRAGLKTVPIMVRELDDLAVLEIGIIENVQRADLNVLEEALSYKVLMEKFERTQENIAQTIGKSRSHVANTMRLLALPDEVQSYLVSGELTAGHARAIAAAADPVALAKQIIEGGLSVRETEALARKAPNLSAGKSKGGRPPRVKDTDTQALESDLSSVLGLDVSIDHRGSTGTLTITYATLEQLDDLSNRLTRGI [chain 1 Q58A] | 64 | 79
MESVVVGEPGMSEGRRGLGRGLSALLGEVDAAPACAPGEQLGGSREAPIEILQRNPDQPRRTFREEDLEDLSNSIREKGVLQPILVRPSPDTAGEYQIVAGERRWRAAQRAGLKTVPIMVRELDDLAVLEIGIIANVQRADLNVLEEALSYKVLMEKFERTQENIAQTIGKSRSHVANTMRLLALPDEVQSYLVSGELTAGHARAIAAAADPVALAKQIIEGGLSVRETEALARKAPNLSAGKSKGGRPPRVKDTDTQALESDLSSVLGLDVSIDHRGSTGTLTITYATLEQLDDLSNRLTRGI [chain 1 E135A] | 68 | 80
